Experimental findings from article PMC2664085 are described below.

Substrate in series [1]: Nc1ncnc2c1ncn2[C@@H]1O[C@H](COP(=O)(O)OP(=O)(O)OP(=O)(O)O)[C@@H](O)[C@H]1O
Kind of series: ATP dependence of 3H-DNPSG uptake into RLIP76-proteoliposomes. Conditions: co-substrate DNP-SG, 37°C, 5 min, random bi-bi fit. It is filed as biochemical, Homo sapiens.

Substrate in series [2]: N[C@@H](CCC(=O)N[C@@H](CSc1ccc([N+](=O)[O-])cc1[N+](=O)[O-])C(=O)NCC(=O)O)C(=O)O
Kind of series: ATP-dependent uptake of 3H-DNPSG into RLIP76-proteoliposomes, filtration. It is filed as biochemical, Homo sapiens. Particulars: ATP co-substrate, 37°C, 5 min, random bi-bi fit, labelled compound.

B1: recombinant RLIP76 (Homo sapiens) (protein)
chain: MTECFLPPTSSPSEHRRVEHGSGLTRTPSSEEISPTKFPGLYRTGEPSPPHDILHEPPDVVSDDEKDHGKKKGKFKKKEKRTEGYAAFQEDSSGDEAESPSKMKRSKGIHVFKKPSFSKKKEKDFKIKEKPKEEKHKEEKHKEEKHKEKKSKDLTAADVVKQWKEKKKKKKPIQEPEVPQIDVPNLKPIFGIPLADAVERTMMYDGIRLPAVFRECIDYVEKYGMKCEGIYRVSGIKSKVDELKAAYDREESTNLEDYEPNTVASLLKQYLRDLPENLLTKELMPRFEEACGRTTETEKVQEFQRLLKELPECNYLLISWLIVHMDHVIAKELETKMNIQNISIVLSPTVQISNRVLYVFFTHVQELFGNVVLKQVMKPLRWSNMATMPTLPETQAGIKEEIRRQEFLLNCLHRDLQGGIKDLSKEERLWEVQRILTALKRKLREAKRQECETKIAQEIASLSKEDVSKEEMNENEEVINILLAQENEILTEQEELLAMEQFLRRQIASEKEEIERLRAEIAEIQSRQQHGRSETEEYSSESESESEDEEELQIILEDLQRQNEELEIKNNHLNQAIHEEREAIIELRVQLRLLQMQRAKAEQQAQEDEEPEWRGGAVQPPRDGVLEPKAAKEQPKAGKEPAKPSPSRDRKETSI
On to B1, for which the Km was determined as 4400 ± 700 µM in series [1] and 55 ± 4 µM in series [2].
